{
  "source": "the nanobody polyreactivity screen of Harvey et al. (2022)",
  "data": [
    {"assay": "yeast display, Sf9 membrane polyspecificity reagent, FACS + sequencing; frameworks hold sequencing errors", "procedure,_shortened": "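After 36–48 hours of galactose induction, yeast (Saccharomyces cerevisiae BJ5465) displaying a synthetic nanobody library were stained at 4 °C for 1 hour with 10% biotinylated, detergent-solubilized Sf9 membrane reagent. Streptavidin microbeads enriched the stained cells before FACS sorting into low and high (top ~1%) gates on anti-HA and streptavidin fluorescence. Each clone's polyreactivity label reflects its gate of origin.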", "values": [
      {"sequence": "QVQHVESGGGLVQAGGSLRLSCAASGRIFGTNAMGWYRQAPGKERELVAAINGSDSSTYYADSVKGRFTISRDNAKNTVYLQMNSLKPEDTAVYYCNADWSGAPERSTDGYDYWGQGTQVTVSS", "polyreactivity (PSR sort gate)": "low polyreactivity"},
      {"sequence": "QVQLVESGGGLVQAGGSLRLSCAASGNTIVTNTMGWYRQAPGKERELVAAIDSGGDTYYADSVKGRFTISRDNAKNTVYLQMNSLKPEDTAVYYCAAVGDPNYFSNRRYEYWGQGTQVTVSS", "polyreactivity (PSR sort gate)": "low polyreactivity"},
      {"sequence": "QVQLGESGGGLVQAGGSLRLSCAASGSTFTRYGMGWYRQAPGKERELVAAITTSGSSTYYADSVKGRFTISRDNAKNTVYLQMNSLKPEDTAVYYCAADWSSWGFDYWGQGTQVTVSS", "polyreactivity (PSR sort gate)": "low polyreactivity"},
      {"sequence": "QVQLVESGGGLVQAGGSLRLSCAASGFIFYKYAMGWYRQAPGKERELVAAITWRGGRTNYADSVKGRFTISRDNAKNTVYLQMNSLKPEDTAVYYCAADPWYSSYYYSYEYWGQGTQVTVSS", "polyreactivity (PSR sort gate)": "high polyreactivity"},
      {"sequence": "QVQLVESGGGLVQAGGSLRLSCAASGGTFGSYAMGWYRQAPGKERELVAGITGSGGITKYADSVKGRFTISRDNAKNTVYLQMNSLKPEDTAVYYCNADYSVWYIRLSAYFTYDYWGQGTQVTVSS", "polyreactivity (PSR sort gate)": "high polyreactivity"},
      {"sequence": "QVQLVESGGGLVQAGGSLRLSCAASGSIFGTYAKGWYRQAPGKERELVAAISKRGSTTSYADSVKGRFTISRDNAKNTVYLQMNSLKPEDTAVYYCAALTRNSGGYGSWGQGTQVTVSS", "polyreactivity (PSR sort gate)": "high polyreactivity"},
      {"sequence": "QVQLVESRGGLVQAGGSLRLSCSASGLTIWRYAMGWYRHEPGKEWEFVATISQNGGRTYYADSVKGRFTISRDNAKNTVYLQMNSLKPEDTAVYYCAADDWRWGYDYWGQGTQVTVSS", "polyreactivity (PSR sort gate)": "high polyreactivity"},
      {"sequence": "QVQLEESGGGLVQAGGSLRLSCAASGRLFGDNAMGWYSQAPGKERELVAAISDSGGSTYYADSVKGRFTISRDNAKNTVYLQMNSLKPEDTAVYYCAAEYIVRWYWYYYWGQGTQVTVSS", "polyreactivity (PSR sort gate)": "high polyreactivity"},
      {"sequence": "QVQHVESGGGLVQAGGSLRLSCAASGSIFNYYAMGWYRQAPGKERELVAAISKTGGSTYYADSVKGRFTISRDNAKNTVYLQMNSLKPEDTAVYYCNAVYASVSPTPYGYWGQGTQVTVSS", "polyreactivity (PSR sort gate)": "high polyreactivity"},
      {"sequence": "QVQLVESGGGLVQAGCSLGISCAASGSTVRGNAMGWYRQAPGKEREFVAAITVSGGSTYYADSVKGRFTLSRDNAKINVYVEMNSLKPEDNAVYYCAASVYKGWPTHYDYWGQGTQVTVSS", "polyreactivity (PSR sort gate)": "high polyreactivity"},
      {"sequence": "QVQLVESRRGLVQAGASLRLSCAASGSTFYGYGMGWYRQAPGKERELVAAITGSGDTTYYADSVKGRFTISRDNAKNTVYLQMNSLKPEDTAVYYCNARWHAEYDYWGQGTQVTVSS", "polyreactivity (PSR sort gate)": "low polyreactivity"},
      {"sequence": "QVQLVESGGGLVQAGGSLRLSCAASGSTFIAYALGWYRQAPGKERELDAAITTGDSTNYADSVKGRFTISRDNAKNTVYLQMNSLKPEDTAVYYCNADGTDFHFLSEIGSSQEGDYWGQGTQVTVSS", "polyreactivity (PSR sort gate)": "low polyreactivity"},
      {"sequence": "QVQLVESGGGLVQAGGSLRISCAASGSTFVRNAMGWYRQAHGKERELVAAISVDGSSTYDADSVKGRFTISRDNAKNTVYLQMNSLKREDTAVYYCNADWEYRDFYDITYDYWGQGTQVTVSS", "polyreactivity (PSR sort gate)": "low polyreactivity"},
      {"sequence": "QVQLVESGGGLVHEGRSLRLSCAASGSKYSYDAMGWYRQAPGTERELVPTISWRGRTYYADSVKGRFTISRDNAKNTVYLKMISLKPEDTAVYYCNTKSLYGRSRGYPYDYWGQGTQVTVSS", "polyreactivity (PSR sort gate)": "high polyreactivity"},
      {"sequence": "QVQLVESGGGLVQAGGSLRLSCAASGSIFRRYAMGWYRQAPGKEREFVAAITRSGGGTYYADSVKGRFTLSRDNAKNTVYLQMNSLIPEDTAVYYCAKDVFVQRSRYPEGDYWGQGTQVTVSS", "polyreactivity (PSR sort gate)": "high polyreactivity"},
      {"sequence": "QVQLVESGGGLVQAGGSLRLSCAASGSTSGTNAMGWYRQAPGKERELVATISRRGGSTYYADSVKGRFTISRDNAKNTVYLQMNSLKQDYTAVYYCAARTYGYFLYDYWGQGTQVTVSS", "polyreactivity (PSR sort gate)": "high polyreactivity"},
      {"sequence": "QVQLVESGGGLVQAGGSLRLSCAASGIIFFSNAMGWYRQAPGKERELVAAIDDSDGVTYYADSVKGRFTISRDNAKNTVYLQMNSLKPEDTAVYYCAAVDGWTYTGSDYWGDGTQVTVSS", "polyreactivity (PSR sort gate)": "low polyreactivity"},
      {"sequence": "QVQLVESGGGLVQAGGSLRLSCAASGSNFDFYAMGWYRQAPGKERELVAAISSSGTSTYYADSVKGRFTISRDNAKNTVYLQMNSLKPEDTAVYYCAAVYSRSGYTWREYGYWGQGTQVTVSS", "polyreactivity (PSR sort gate)": "low polyreactivity"},
      {"sequence": "QVQLVESGGGLVQAGGSLRFSCAASGSTFTRYAMGWYRQAPGKERELVAAISWSGGITYYADSVNGRFTISRDNAKNTVYLQMNSLKPEDTAVYYCAAKRRYTRGGYGVDYWGQGTQVTVSS", "polyreactivity (PSR sort gate)": "high polyreactivity"},
      {"sequence": "QVQLVESGGGLVQAGGSLRLSCAASGSIFRYNAMGWYRQAPGKERELVAAISASGGRTHYADSVKGRFTISRDNAKNTVYLQMNSLKPEDTAVYYCAAATYRGTSLYGYWGQGTQVTVSS", "polyreactivity (PSR sort gate)": "high polyreactivity"},
      {"sequence": "IIQAGGSLRLSCAASGSTLIGYTMGWYRQAPGKERELVAAITWGAGSTNYADSVKGRFTISRDNAKNTVYLQMNSLKPEDTAVYYCNADSTSDPRYLGEYDYWGQGTQVTVSS", "polyreactivity (PSR sort gate)": "low polyreactivity"},
      {"sequence": "QVLLVESGGGLVQAGGSLRLSCAASRSIFEVNPMGWYRQAPGKERELVAAISCSGGSTYYADSVKGRFTISRDNAKNTVYLQMNSLKPEDTAVYYCAARQAGYSGRKLYYWGQGTQVTVSS", "polyreactivity (PSR sort gate)": "low polyreactivity"},
      {"sequence": "QVQLEESGGGLVQEGGSLRLSCAASGRIFKWNAMGLYRQAPGKERELVAAISLSGGSTYYADSVKGRFTISRDNAKNTVYLQMNSLKPEDTAVYYCNAYAYHRYGYWGQGTQVTVSS", "polyreactivity (PSR sort gate)": "high polyreactivity"},
      {"sequence": "QVQLVESCGGLVQAGGSLRLSCAASGFTFTWNAMGWYRQAPGKERELVAGITRGGSTNYADSVKGRFTISRDNAKNTVYLQMNSLKPEDTAVYYCNVSFYFHHAGYDYWGQGTQVTVSS", "polyreactivity (PSR sort gate)": "low polyreactivity"},
      {"sequence": "QVQLVETGGGLVQAGGSLRLSCAASGSTFVWYDMGRYRQAPGKERELVATITSGGITTYADSVKGRFTISRDNAKNTVYLKMNSLKPEDTAVYYCNADLYYWLRYYDRNDYLGQGTQVTVSS", "polyreactivity (PSR sort gate)": "low polyreactivity"},
      {"sequence": "QVQLVESGGGLVQAGGSLRLSCAASGIIFPGYTMGWSRQAPGPEREVVAAISSGGRTNYADSVKGRFTISRDNAKNTVYLQMNSLKPEDTAVYYCAATRVASLGSPMYYCGQGTQVTVSS", "polyreactivity (PSR sort gate)": "high polyreactivity"},
      {"sequence": "QVQLVESGGGLVQAGGSLRLSCAASGSTIYGYAMGWDRQAPGKERELVAAISYRGGSTYYADSVKGRFTISRDNAKNTVYLQMNSLKPEDTAVYYCAALGDDATSYGYWGQGTQVTVSS", "polyreactivity (PSR sort gate)": "high polyreactivity"},
      {"sequence": "QVQLVESGGRLVQAGGSLRLSCAASGRTFVYNAMGWYRQAPGKESELVAAISSGGGTNYADSVKGRFTISRDNAKNTVYLQMNSLKPEDTAVYYCAAGFDGSRHPGFDSWGQGTQVTVSS", "polyreactivity (PSR sort gate)": "low polyreactivity"},
      {"sequence": "QVQLVESGGGLVQAGGSLRLSCAASGRTFLYYAMGWYRQAPGKERELVAAISSGGSTNYADSVKGRFTISRDNAKNTVYLQMNSLIPEDTAVYDCNADYTSRETSDVIYEYDYWGQATQVTVSS", "polyreactivity (PSR sort gate)": "low polyreactivity"},
      {"sequence": "QVQLVESGGGLVQAGGSLRLSCAASGSIFLAYAMGCYRQATAKEREFVAANSFSDGSTYYADSVKGRFTISRDNAKNTVYLQMNSLKPEDTAVYYCNKGASPDDYDYWGQGTQVTESS", "polyreactivity (PSR sort gate)": "low polyreactivity"},
      {"sequence": "QVQLVESGGGLVQAGGSLRLSCAASGSIFSSYAMGWYRQAPGKERELVAAISGGGNTYYADSVKGRFTISRDNAKNTVYLQMNSLKPEDTAVYYCATDTYDPFHIEDDYWGQGTQVTVSS", "polyreactivity (PSR sort gate)": "low polyreactivity"},
      {"sequence": "QVQLVESGGGLVQAGGSLRLSCAASGRIFSYYAMGWYRQAPGKERELVAVISRRGDNTYYADSVKGRFTISRDNAKNTVYLQMNSLKPEDTEVFYCAAYSWYAKDFDYWGQGTQVTVSS", "polyreactivity (PSR sort gate)": "high polyreactivity"},
      {"sequence": "QVQLVESGGGLVQAGGSLRLSCAASGSTFPAYAMGWYRQAPGKERELVAVINLSGSTYYADSVKGRFTISRDNAKNTVYLQMNSLKPEDTAVYYCNARPYDYYRYGYWGQGTQVTVSS", "polyreactivity (PSR sort gate)": "low polyreactivity"},
      {"sequence": "QVQLEESGGGLVQAGGSLRLSCAASGFTFSPNAMGWYRQAPGKVRELVAAIDWIGGSTYYADSVKWRFTISRDNAKNTVYLQMKSLNTEDTAVYLCTADWVYWHYLTYLVTFDYWGQGTQVTVSS", "polyreactivity (PSR sort gate)": "low polyreactivity"},
      {"sequence": "QVQRVESGGGLVQAGGRLRLSCAASGSIFFSKAMGWYRPAPGKERELVAGIRSGGITNYADSVKGRFTISRDNAKNTVSLQMNSLKPEDTAVYYCAKLKDHGRYAYAFDYWGQGTQVTVSS", "polyreactivity (PSR sort gate)": "low polyreactivity"},
      {"sequence": "EVQLVESGGGLVQAGGSLRLICAASGSIFRDNAMGWYRQAPGKERELVARITWSGTRTYYADSVKGRFTISRDKAKNTVYLQMNSLKPEDTAVYYCNKDRRTIPPSGNDYWGQGTQVTVSS", "polyreactivity (PSR sort gate)": "low polyreactivity"},
      {"sequence": "QVQLVESGGGLVQAGGSLRLSCAASGRIFINYAMGWYRQAPGKERELVAAITTNGGSTYYADSVKGRFTISRDNAKYTVYLQMNSLKPEDTAVYYCAARRRYKMDYWGQGTQVTVSS", "polyreactivity (PSR sort gate)": "high polyreactivity"},
      {"sequence": "QVQLVESGGGLVQAGGSLRLSCAASGSTFRVYAMGWYRQAPGTERELVATINVSGGSTYYADSVKGRFTISRDNAKNTVYLQMNSLKPEDTAVYYCAKEDGAYGYPFDYWGQGTQVTVSS", "polyreactivity (PSR sort gate)": "low polyreactivity"},
      {"sequence": "QVQLVESGGGLVQAGGSLRLSCAASGRTFTYNVLGWYRVAPGKERELVAAITSGGSNYADSVKGRFTISRDNAKNTVYLQLNSLKPEDTAGYYCATDYYDDVTIGYDYWGPGTQVTVSS", "polyreactivity (PSR sort gate)": "low polyreactivity"},
      {"sequence": "QVQLVESGGGLVQAGGSLRLSCADSGFIFWYYAMGWYRQAPGKERELVAAISWSGDSTYYADSVKWRFTISRDTANNTVYLQMNSLKPEDTAVYYCAVYDELDVFYNGYDYWGQGTQVTVSS", "polyreactivity (PSR sort gate)": "high polyreactivity"},
      {"sequence": "QVQLVESGGGLVQAGGSLRLSCASSGGTFSPYAMVWYIQAPGKEREMVAVIRSDVTTNYADSVKGRFTISRDNAKNTLYLQMNRLKPEDTAVYYCAVQYLGYGGLFPLDYWGQGTQVTVSS", "polyreactivity (PSR sort gate)": "low polyreactivity"},
      {"sequence": "QVQLVESGGGLVQAGGSLRLSCAASGLTFPYYAMGWYRQAPGKEREFVAAISRGGGRTSYADSVKGRFTISRDNAKNTVYLQMNSLKPEDTAVYYCAADDPGWYSDLYYYWGLGTQVTVSS", "polyreactivity (PSR sort gate)": "high polyreactivity"},
      {"sequence": "QVQLVESGGGLVQAGGSLLLSCAASGSIFGWYAMGWYRQAPGKERELVAAISSSDGSTYYADSVKGRFTISRDNPKNTVYLQMNSLKPEDTAVYYCATDSAFTYAQYDYWGQGTQVTVSS", "polyreactivity (PSR sort gate)": "low polyreactivity"}
    ]}
  ]
}
